Assay [1] addresses Alpha突变株RBD蛋白(货号SPD-C82E6，ACRO Biosystems) (SARS-CoV-2, UniProt P0DTC2 319-537).
The target in assay [2] is Kappa突变株RBD蛋白(货号SPD-C82Ec，ACRO Biosystems) (SARS-CoV-2, UniProt P0DTC2 319-537).
For assay [3], the target named is Epsilon突变株RBD蛋白(货号SPD-C82E3，ACRO Biosystems) (SARS-CoV-2, UniProt P0DTC2 319-537).
Assay [4] addresses Gamma突变株RBD蛋白(货号SPD-C82E7，ACRO Biosystems) (SARS-CoV-2, UniProt P0DTC2 319-537).
Assay [5] addresses Delta突变株RBD蛋白(货号SPD-C82Ed，ACRO Biosystems) (SARS-CoV-2, UniProt P0DTC2 319-537).
Assay [6] has as its target Beta突变株RBD蛋白(货号SPD-C82E5，ACRO Biosystems) (SARS-CoV-2, UniProt P0DTC2 319-537).
In assay [7] the target is SARS-CoV-2的Kappa突变株(B.1.617.1)假病毒的刺突蛋白 (SARS-CoV-2, UniProt P0DTC2 14-1273). Put plainly: cell-based or functional assay.
Assay [8] concerns the target SARS-CoV-2的Alpha突变株(B.1.1.7)假病毒的刺突蛋白 (SARS-CoV-2, UniProt P0DTC2 14-1273). As to the kind of experiment: cell-based or functional assay.
Assay [9] deals with SARS-CoV-2的Beta突变株(B.1.351)假病毒的刺突蛋白 (SARS-CoV-2, UniProt P0DTC2 14-1273). Put plainly: cell-based or functional assay.
Assay [10] addresses SARS-CoV-2的Gamma突变株(P.1)假病毒的刺突蛋白 (SARS-CoV-2, UniProt P0DTC2 14-1273). As to the kind of experiment: cell-based or functional assay.
Assay [11] addresses SARS-CoV-2的Delta突变株(B.1.617.2)假病毒的刺突蛋白 (SARS-CoV-2, UniProt P0DTC2 14-1273). Put plainly: cell-based or functional assay.

The term Kd denotes the constant that tells how readily two partners part at equilibrium. Read a low Kd as higher affinity. For orientation: koff means the first-order rate constant of dissociation. Read a low koff as a long-lived complex. As usually defined, the kon is the second-order rate constant of association. Lower therefore signals slower complex formation.

B1: JS5-10 (antibody, human IgG1, kappa, L234A L235A, V domains shown)
VH: EVQLLESGGGLVQPGGSLRLSCAASGFTFSSYAMSWVRQAPGKGLEWVSAIVGSGGSTYYADSVKGRFIISRDNSKNTLYLQMNSLRAEDTAVYYCAKSLIYGHYDILTGAYYFDYWGQGTLVTVSS
VL: DIQMTQSPSSVSASVGDRVTIPCRASQGIGNWLAWYQQKPGKAPKLLIYAASSLQSGVPSRFSGSGSGTDFTLTISSLQPEDFATYYCQQANSFPPFGQGTRLEIKR
On to B1, for which the Kd is 1.3 nM in [1]; 0.875 nM in assay [2]; 1.17 nM in [3]; 1.12 nM in [4]; 0.73 nM in [5]; 0.88 nM in assay [6]. Moreover, the koff was 0.000316 s⁻¹ in [1]; 0.000172 s⁻¹ in assay [2]; 0.000226 s⁻¹ in assay [3]; 0.000241 s⁻¹ in assay [4]; 0.000161 s⁻¹ in [5]; 0.000176 s⁻¹ in assay [6]. For the same molecule, the on-rate (kon) in assay [1] was determined as 243000 M⁻¹ s⁻¹; in assay [2] it was 196000 M⁻¹ s⁻¹; in assay [3] it was 193000 M⁻¹ s⁻¹; in [4], 216000 M⁻¹ s⁻¹; in assay [5], 220000 M⁻¹ s⁻¹; in assay [6] it was 201000 M⁻¹ s⁻¹. Further, the “假病毒中和 IC50 (荧光素酶报告基因, 293-ACE2细胞)” value was determined as 5.4 ng/mL in assay [7]; 1.18 ng/mL in assay [8]; 8.47 ng/mL in [9]; 0.449 ng/mL in [10]; 5.56 ng/mL in assay [11].
